According to patent publication US20190309034A1 (Boehringer Ingelheim, published 2019):

B1: 352G11A10 (antibody, V domains shown)
VH: QVQLQQSGPELVKPGGSVRISCKASGYSLISYYIHWVKQRPGQGLEWIGLTFPGSGNSKFIEKFKGKATLTADTSSNTAYIQLSSLTSEDSAVYYCTRGDFGNYLAYWYFDVWGTGTTVTVSS
VL: DIKMTQSPSSIYASLGERVTITCKASQDIHSYLSWFQQKPGKSPKTLMYRTNRLVDGVPSRFSGSGSGQDYSLTIRSLEYEDMGNYYCLQYDEFPYTFGGGAKLEVK
B2: 317H2A6 (antibody, V domains shown)
VH: QVTLKESGPGILQPSQTLSLTCSFSGFSLRTFGMGVGWIRQPSGKGLEWLAHIWWNGDKYYDPALKSRLTISKDTSENRVFLNIANVDTTDTAPYYCVRIGPSITTVAEGFAYWGQGTLVTVSA
VL: DIVMTQSQKFLSTTIGDRVSITCKASQNVGSAVVWYQQKPGQPPKLLITSASNRYSGVPDRFTGSGSGTDFTLTVSNVQSVDLADYFCQQYSNYPLTFGAGTKLELK
B3: 323E9D1 (antibody, V domains shown)
VH: QVTLKESGPGILQPSQTLSLTCSFSGFSMRTFGMGVGWIRQPSGKGLEWLAHIWWNDEKYYNPDLKSRLTVSKDSSKNQVFLTIANVDTSDTAPYYCTRVGPSISTIAEGFPYWGQGTLVTVSA
VL: DIVMTQSQKFVSTRVGDRVSITCKASQNVGAAVVWYQQKSGQPPKLLIRSASNRYIGVPDRFTGSGSGTDFTLTVSDVQSGDLADYFCQQYSNYPLTFGAGTKLELT
B4: 319B8A12 (antibody, V domains shown)
VH: KVTLKESGPGILQPSQTLSLTCSFSGFSLRTFGMGVGWIRQPSGKGLEWLAHIWWNDEKYYNPDLKSRLTVSKDSSKNQVFLTIANVDTSDTAPYYCTRVGPSISTVAEGFPYWGQGTLVTVSA
VL: DIVMTQSQKFVSTRVGDRVSITCKASQNVGAAVVWYQQKSGQPPKLLIRSASNRYIGVPDRFTGSGSGTDFTLTVSDVQSGDLADYFCQQYSNYPLTFGAGTKLELTR
B5: 348A6C1 (antibody, V domains shown)
VH: QVTLRESGPGILQPSQTLSLTCSFSGFSLRTFGMGVGWIRQPSGKGLEWLAHIWWNDEKYYNPALKSRLTVSKDSSENQVFLKIANVDTTDTAPYYCARLGPSITTVAEGFPYWGQGTLVTVSA
VL: DIVMTQSQKFMSTTVGDRVSITCKASQNVGAAVAWYQQKPGQPPKLLIRSASNRYIGVPDRFTGSGSGTDFTLTVSDVQSVDLADYFCQQYSNYPLTFGAGTKLELTR
B6: 320F9C5 (antibody, V domains shown)
VH: QVTLKESGPGILQSSQTLSLTCSFSGFSLRTFGMGVGWIRQPSGKGLEWLAHIWWNDDKSSHPALKSRLTISKDTSKNQVFLKIANVDTAETATYYCVRIGPSITTVAEGFAYWGQGTLVTVSA
VL: DIVMTQSQKFMSTTVGDRVSITCKASQNVGSVVAWYQQRPGQSPTLLIYSASNRYTGVPDRFTGSGSGTDFTLTISNMQSEDLADYFCQQYSSYPLTFGAGTKLELK
B7: 363D4A10 (antibody, V domains shown)
VH: QVTLKESGPGILQSSQTLSLTCSFSGFSLKTFGMGVGWIRQPSGKGLEWLAHIWWNDDKFYHPALKSRLTISKDTSKNQVFLKIANVDTAETATYYCVRIGPSITTVAEGFAYWGQGTLVTVSA
VL: DIVMTQSQKFMSTTVGDRVTITCKASQNVGSAVVWYQQKPGQSPILLIFSASNRYTGVPDRITGSGSGAEFTLTISSVQSEDLAEYFCQQYSSYPLTFGAGTKLELK
B8: 27I21-3C7 (antibody, V domains shown)
VH: QVQLQQSGPELVRPGTSVKISCKAPGYIFTSHWMQWVRQRPGQGLEWIGDIFPGSGTTDYNEKFKDKATVTVDRSSSSAYMQFNSLTSEDSAVYFCASGAFDYWGQGTTLTVSS
VL: DIQMTQSPSSLSASLGERVSLTCRASQDIGNRLNWLQQAPDGTIKRLIYATSSLDSGVPKRFSGSRSGSDYSLTISSLESEDFVDYYCLQYASYPFTFGTGTKLEIK
B9: 606H7F8 (antibody, V domains shown)
VH: VQLVESGGGLVKPGGSLKLSCAASGFTFSSYDMSWVRQTPEKRLEWVAAINSYGVNTYYPDTVKDRFTISRDNAKNTLYLQMSSLRSEDTALYYCARLLIGPYYYAMDYWGQGTSVTVSS
VL: DIQMTQSPASLSASVGETVTITCRASGNIHNYLAWYQQKQGKSPQLLVYNAKTLADGVPSRFSGSGSGTQFSLKINSLQPEDFGSYYCQHFWSTPYTFGGGTKLEIK
B10: 344B9D9 (antibody, V domains shown)
VH: EFQLQQSGPELGEPGASVKISCKASGFSFSDYNINWVKQSNGKSLEWIGKVHPKDGTATYNQKFQDKATLTLDQSSSTAYMQLSSLTSEDSAVYYCLPLYYDSLTKILFAYWGQGTLVTVSA
VL: DIQMTQSPASLSASVGETVTITCRASGNIHNYLAWYQQKQGKSPQLLVYSAITLADGVPSRFSGSGSETQFSLKINSLQPEDFGIYYCQHFWNTPYTFGGGTKLEIK
B11: 332C1B12 (antibody, V domains shown)
VH: QVQLQQPGAELVKPGASVKLSCKASGYTFTNDNYWMNWMKQRPGRGLEWIGRIRPSDSETHYNQKFTNKATLTVDKSSSTAYIQLSSLTSVDSAVYYCARSWEDLLLRSMEDYFDYWGQGTTLTVSS
VL: DIVLTQSPASLPVSLGQRATISCRASKGVSTSSYTFIHWYQQKPGQPPKLLIKYASNLESGVPARFSGSGSGTDFTLNIHPVEEEDVATYYCQHSREFPRTFGGGTKLEIK
B12: 560H2A7 (antibody, V domains shown)
VH: EVKLVESGGGLVQPGGSLSLSCAGSGFTFSDYYMSWVRQPPGKALEWLALIRNKAPGYTTEYSASVKGRFTISRDNSQSILYLQMNALRPEDSATYYCARVLRRADCLDYWGQGTALTVSS
VL: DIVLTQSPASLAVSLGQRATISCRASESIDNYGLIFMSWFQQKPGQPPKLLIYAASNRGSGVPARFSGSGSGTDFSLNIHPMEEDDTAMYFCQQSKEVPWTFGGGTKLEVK

What was measured:
[1] = target: Recombinant soluble 60-mer human BAFF (His-HuBAFF 134-285) (human, UniProt Q9Y275 134-285); assay: cell-based or functional assay
[2] = target: Recombinant soluble trimeric human BAFF (furin-cleaved human BAFF 134-285) (human, UniProt Q9Y275 134-285); assay: cell-based or functional assay

Row | Binder | Soluble 60-mer huBAFF (4 pM) Neutralization IC50 [1] | Soluble 60-mer huBAFF (4 pM) Neutralization IC90 [1] | Soluble trimeric huBAFF (50 pM) Neutralization IC50 [2] | Soluble trimeric huBAFF (50 pM) Neutralization IC90 [2]
1 | B1 | 21 pM | 90 pM | 99 pM | 444 pM
2 | B2 | 4 pM | 13 pM | 97 pM | 327 pM
3 | B3 | 6 pM | 23 pM | 148 pM | 312 pM
4 | B4 | 8 pM | 24 pM | 91 pM | 331 pM
5 | B5 | 9 pM | 29 pM | 110 pM | 329 pM
6 | B6 | 10 pM | 24 pM | 110 pM | 3110 pM
7 | B7 | 9 pM | 23 pM | 21 pM | 473 pM
8 | B8 | 11 pM | 33 pM | 55 pM | 326 pM
9 | B9 | 12 pM | 44 pM | 29 pM | 378 pM
10 | B10 | 11 pM | 32 pM | 102 pM | 352 pM
11 | B11 | 12 pM | 40 pM | 99 pM | 457 pM
12 | B12 | 13 pM | 30 pM | 35 pM | 324 pM
